Consider five substances from patent US20250277003A1.

Assay [1] addresses SARS-CoV-2 RBD glycan-masked mutant GM14 (SARS-CoV-2) (UniProt P0DTC2). As to the kind of experiment: ELISA, AUC relative to RBD WT. In general terms: In an ELISA, binding on a coated surface is turned into a signal by an enzyme label.
Assay [2] addresses SARS-CoV-2 RBD glycan-masked mutant GM9 (SARS-CoV-2) (UniProt P0DTC2). As to the kind of experiment: ELISA, AUC relative to RBD WT.

With mAb CR3022 (antibody), the %AUC came to 72.9% in assay [1] and 120% in assay [2].
With mAb CB6 (antibody), the %AUC was 7.8% in assay [1] and 7.2% in assay [2].
As to mAb S309 (antibody), the %AUC in assay [1] was 83.4%; in assay [2] it was 114%.
The corresponding values for mAb C002 (antibody) are 10.2% and 51.3%.
In the case of mAb EY6A (antibody), the results for the %AUC in assay [1] and in assay [2] were 94.5% and 115%, respectively.
